US20100261660A1 (published 2010)
Substitutions are numbered along the chain they refer to.

B1: Round 2 CD28BP-15 (ligand)
chain: ITPKSVTKRVKETVMLSCDYNTSTEELTSLRIYWQKDSKMVLAILPGKVQVWPEYKNRTITDMNDNPRIVILALRPSDSGTYTCVIQKPVLKGAYKLEHLASVRLMIRADFPVPTINDLGNPSPNIRRLICSTSGGFPRPHLYWLENGEELNATNTTVSQDPGTELYMISSELDFNVTNNHSIVCLIKYGELSVSQIFPWSKPKQEPPIDQLPFWVIIPVSGALVLTAVVLYCLACRHVARWKRTRRNEETVGTERLSPIYLGSAQSSG
notes: also called clone R2 CD28BP-15; clone 15
B2: Rhesus B7-1 (ligand)
chain: VIHVTKEVKEVATLSCGHNVSVEELAQTRIYWQKEKKMVLTMMSGDMNIWPEYKNRTIFDITNNLSIVILALRPSDEGTYECVVLKYEKDAFKREHLAEVMLSVKADFPTPSITDFEIPPSNIRRIICSTSGGFPEPRLSWLENGEELNAISTTVSQDPETELYTVSSKLDFNMTTNHSFMCLIKYGHLRVNQTFNWNTPKQEHFPDNLLPSWAITLISVNGIFVICCLTHCFAPRCRERRRNETLRRESVRPV
notes: also called rhesus monkey B7-1
B3: CD28BP-FLAG (CD28BP-15 with a FLAG-tag) (ligand)
chain: DYKDDDDKITPKSVTKRVKETVMLSCDYNTSTEELTSLRIYWQKDSKMVLAILPGKVQVWPEYKNRTITDMNDNPRIVILALRPSDSGTYTCVIQKPVLKGAYKLEHLASVRLMIRADFPVPTINDLGNPSPNIRRLICSTSGGFPRPHLYWLENGEELNATNTTVSQDPGTELYMISSELDFNVTNNHSIVCLIKYGELSVSQIFPWSKPKQEPPIDQLPFWVIIPVSGALVLTAVVLYCLACRHVARWKRTRRNEETVGTERLSPIYLGSAQSSG
notes: also called FLAG-construct of CD28BP-15
B4: Round 1 CD28BP-84 (ligand)
chain: GISQVTKSVKEMAALSCDYNISIDELARMRIYWQKDQQMVLSIISGQVEVWPEYKNRTFPDIINNLSLMILALRLSDKGTYTCVVQKNENGSFRREHLTSVTLSIRADSPVPSITDIGHPAPNVKRIRCSASGGFPEPRLAWMEDGEELNAVNTTVDQDLDTELYSVSSELDFNVTNNHSIVCLIKYGELSVSQIFPWSKPKQEPPIDQLPFWVIIPVSGALVLTAVVLYCLACRHVARWKRTRRNEETVGTERLSPIYLGSAQSSG
notes: also called R1clone 84; Clone 84
B5: Round 1 CD28BP-118 (ligand)
chain: B4 chain with S109F, G134D
notes: also called R1clone 118; Clone 118

Columns and labels:
[1] = target: T1, Soluble CD28-Ig (extracellular domain of human CD28 fused to the Fc portion of human IgG1) (human, UniProt P10747 19-152, biotin-conjugated (NHS-biotin) in the FACS binding assays); assay: competitive FACS on transfected cells, biotin-sCD28-Ig with FITC-sCTLA-4-Ig; grade 0-2 of CD28/CTLA-4 ratio vs WT hB7-1
T1 construct: extracellular domain; bought from R&D Systems; also called sCD28-Ig; CD28-Ig Fc; not shown: Fc portion of human IgG1

[2] = target: CD28 receptor on human T cells (human, UniProt P10747 19-220); assay: cell-based or functional assay
[3] = target: T1, Soluble CD28-Ig (extracellular domain …); assay: two-color FACS of transfected 293 cells
Protocol: (§1) The labeled cells were subsequently handled at 4° C., washed twice with DMEM/10% FCS and incubated with 0.1 μg/ml Streptavidin-phycoerythrin (PE) (Pharmingen, San Diego, Calif.) in 100 μl for 15 min. Biotin binds the fluorescence marker Streptavidin-PE. (R-PE has an excitation maximum of 565 nanometers (nm) and an emission maximum of 578 nm. B-PE has excitation and emission maxima of 545 nm and 578 nm, respectively. FITC has excitation and emission maxima of 494 and 519, respectively.) The cells were again washed twice and resuspended in 200 μl medium with 5 μg/ml propidium iodide (PI). The cells were then analyzed using a FACSCalibur flow cytometer and CellQuest software (BDIS, San Jose, Calif.). Cell sorting was performed by flow-cytometry based cell sorting screening methods using FACS (Fluorescence-Activated Cell Sorting) Vantage SE cell sorter (BDIS) (Becton Dickinson; San Jose, Calif.). The staining concentration was determined for each labeled protein to provide a maximal Mean Fluorescence Intensity (MFI) and minimal background signal (e.g., optimum staining concentration was the concentration per 10⁶ cells).

[4] = target: T2, Soluble CTLA-4-Ig (extracellular domain of human CTLA-4 fused to the Fc portion of human IgG1) (human, UniProt P16410 36-161, FITC-conjugated in the FACS binding assays); assay: two-color FACS of transfected 293 cells
T2 construct: extracellular domain; bought from R&D Systems; also called sCTLA-4-Ig; CTLA-4-Ig Fc; not shown: Fc portion of human IgG1
T2 sequence (P16410 36-161): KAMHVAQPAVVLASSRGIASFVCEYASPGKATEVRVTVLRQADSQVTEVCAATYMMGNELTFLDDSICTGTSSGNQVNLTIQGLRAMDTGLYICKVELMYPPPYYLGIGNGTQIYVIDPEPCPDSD
Protocol: as §1

[5] = target: T1, Soluble CD28-Ig (extracellular domain …); assay: flow cytometry of transiently transfected 293 cells
[6] = target: T2, Soluble CTLA-4-Ig (extracellular domain …); assay: flow cytometry of transfected cells, at least two experiments

| Binder | Binding Score [1] | binding result [6] | further results |
| --- | --- | --- | --- |
| B1 | 2 |  | T cell proliferation (3H-thymidine incorporation), irradiated 293 transfectants with purified human T cells and anti-CD3 mAbs [2]: ~10 fold |
| B2 |  |  | binding result [3]: binds; binding result [4]: binds |
| B3 |  |  | binding result [5]: binds |
| B4 | 1 | binds |  |
| B5 | 1 | binds |  |
